According to the DeepSol protein solubility set:

Assay: soluble on expression in E. coli; label from the status in PepcDB or PDB records

| Sequence | soluble on expression in E. coli |
| --- | --- |
| MAEPAQETPCFSMEKAERAFLDGNFEEALKHFFVCIRMLPVERRGVYEDQFAAALHGWIALDHNNASRAVCLYPQIKELFPETIRTKIALIRAVQGTEQSKWLLNCLPICKDSMDLATKPEDLVALRIARVNLTTIPFPQWHIRMINDVKRNEAFAKALNDTIKSRITVVFDIGSGTGILSAIAARKTNLVTALEENMCLTMISKEVLKRNGVESRVNVHAKNSTYFETCEKADIVVSETLDCCVFGEKIVETFLDAHVRFSHDRTIFIPHQATVYVRLFSCREIFDIHCQDYGGVRYRSEYVKIGESDAEQPYWCASAADYSQFELLSGSVAMHSVDFSSIANLKDSLANSNSFKIRPAKDGVAHGFSVHFTSDLTGHGDNIIDSSKSRAWDLGIIPFKEPCLVKCDKEYEGSWKLLNNRLDVYNDFYDENLQKHEDSLRYETASLDQLQKIRDDSYFKAMMGEIDPIELPFTRDISSSIPAQCVLNTVESQTPIRHLITNFCRYDGTLDQETFFRIEEFVGFRDHVQKIVPTKFRILGHLFYSDRVHFDARPDPSAHCQVDLSTVRSFNLREMRDIRLTQREDIVMASKEFVLYDFNISAEKFRQDTYITVTQDVTVQPTRPIADGVIYEFEILGIRNTKLRPVAAFLFPERVNTNPDMTVVFDLHLGEMLISLKDLP | not soluble |
| MAEPKSFNIPYRSKLTERIEPGQTLIIRGKTIDESKRFNINLHKDSPDFSGNDVPLHLSIRFDEGKIVYNAYTKGTWGKEERAKNPIKKGDDFDIRIRAHDSKFQVSINHKEVKNFEHRIPLNSVSHLSIDGDVVLNHVQWGGKYYPVPYESGIAADGLVPGKTLVVYGTPEKKAKKFNINLLKKNGDIALHFNPRFDEKANGFMCAKPTPGSVVRNSLVNGEWGNEEREGKNPFERLTAFDLEIRNEEFAFQIFVNGERFASYAHRVDPHDIAGLQIQGDIELTGIQVVNNQPAQE | not soluble |
| MAEPLFDMSATGRPRILILGGTTEARQLAERLVSEPHYDTAISLAGRTADPRPQPLPTRTGGFGGAEGLAVFLRERNIALLIDATHPFAARISLNAAAAAKMTGTPLLALRRPAWAAEPGDRWTCVGSVAEAVPALGEAPRRVFLAIGRQEAFHFERAPQHSYVVRSVDPVMPPLDLPDVTAILASGPFAQADETELLERHGIDVIVAKNSGGAATYGKIAAARQLGIEVVMVERHKPADVQSVGDCDEALERIRQWLSPVKDRGV | not soluble |
| MAERPRTIGNALEYVPEAIKTEAICLAALEIQRYGTVLKYIPDALKTEAMCLAAVQKYGYALEYVPEALKTEAICLAAGYEELQYWPEALKTEAVCLAAVEKNSKLLEFVPEALKTEAVCLAAGYKELQYWPEALKTEAPYLAAVQKDGSMLATVPEALKTEAFCLAAVQKNVRAFEYVPEALKTEAVCLAAVEKNGKLLEFVPEALRTEAICLAALQKDSSLLQYIPEALKTEAFCLTAVQKDSSLLQYVPEAFKTEVICLAAVQKDSSLLQYIPEALKTEAFYLAAVRKDGYSLKYIPEALKTEAICLAAVQKNGYLLKYVPEALKTEAICLSAVKQEGSALAYVPEALKTEALCLAAVQKNSSLLQYVPDTFKTEAFEAKMRSVISSGSGSSGYGIELIKWKFLSKEQKEWLEKIPYYYDSSKALEIPAELFTEEFCLAVVLKNSDGSVLQYIPDAKKTEAVCLAAVHERYKNALRYIPDALKT | not soluble |
| MAESVNLVCTFCGSVCDDGQFDVEQFKSKKLCKLGSAKFSKKERIKAPMIDGKEVSYEEAIEKAAEILVNAKKPLLYGWASTVNEAIRLGVILTEKVGGVYDQCASVCHAPGTLAVIEEGLPGGTLGAIKNRADVVVFWGANPMEAHPRHGMRYSISAKGLLIKDRKQRKVIVVDVRPTKTAKLADEFIQIKPGYDYPIISALRAIISGNADAVPDEVGGVSKEKLVELAETMKNAKYGAVLYGLGVTQSRGRDRNVENAVKLIQLLNRHTRWVIWPMRGHYNVVGAGEVPAWEVGYQYAIDFSRGYPRFSPAEFSAVEVLKRKDCDAALIIASDPVAHFPRAAVKHLKEIPVIQIDPFPNMTTLVANVVIPSAVAGLEAEGTAYRMDGIALRVKKVVESSYWSDEQILEKLLEKVEELKG | not soluble |
| MAEVFVGPVAQGYASGEVTVLLASPRSFCAGVERAIETVKRVLDVAEGPVYVRKQIVHNTVVVAELRDRGAVFVEDLDEIPDPPPPGAVVVFSAHGVSPAVRAGADERGLQVVDATCPLVAKVHAEAARFAARGDTVVFIGHAGHEETEGTLGVAPRSTLLVQTPADVAALNLPEGTQLSYLTQTTLALDETADVIDALRARFPTLGQPPSEDICYATTNRQRALQSMVGECDVVLVIGSCNSSNSRRLVELAQRSGTPAYLIDGPDDIEPEWLSSVSTIGVTAGASAPPRLVGQVIDALRGYASITVVERSIATETVRFGLPKQVRAQ | not soluble |
| MAEVHVRELKGWEEMEEVVALQREVWGRAESDLVPRGLLVAVQDEGGLVAGAFAEGRMVGFVFGFPTKDPALHHSHMLGVLEAYRGTGAALLLKRFQRDWCLARGVRRVVWTFDPMRGVNANFNLRKLGATAKTYLPDHYGPMSGINAGAPSDRLLAEWDL | not soluble |
| MAEYLVPKSAVVFEEEIKKSRFITYLQHTEGLEDARAFWAKIKQEHPNARHHCWAAVAGKPTDSLQLGFSDDGEPAGTAGKPMLSALQGSQLGEISAVVVRYYGGILLGTGGLVRAYGNGVQQALKLIESEIKVERTLFKLDCDYGQLRLVQQLCEKYQVEILSQGFQANIHLILGISEKTIEAFSSELTEKSSGRLVIQLLEIGELEHHHHHH | soluble |
| MAFAGLTDLRLFDNVSHYINELAGEFSPDTAHLHDHNCKCSIVDRLWCDYFGMGTCISREARARRKERKRNIKRLREARNASASPRDPFSNGHRYGHRSRSEGGNGDVRDDIKELIIETLEVIRTLVNNEQEPPQSLLKLNFIADEEKGWTMVVRALIYTIPENDPLGPAVISLFLDECPLPSRESVQTLLLSLGLSSEFVDSKHLPPSWHKNMCIVLGSLAEKMAGSAAVTMFNDKIKGYLMKIICYGLTYFPPNYGKTLKEKNTHCVRMFALLALEKFAQTRENQISICKMFTEMTTHPLIKMEEYLKNEEVSRYWFAKQEGFCAQWALDNIFILESRPYSYETCETSKINAMLNHEDVSEYLKIGPDGLEARCDVSSFESVRCTFEVMDGVWYYEATVLTSGVMQIGLATKRSRFLNHEGYGIGDDASSVAYDGCRQLVWYNAKSHKHEHENWQPGDVIGVLLNIPEGEVVFYLNGTPLKEPETEFLSNRQPSEGVFAAASFMSFQQCRFNFGASRFKYNPGKKFRCFNDFGKLSTEQRTIVPRRLRLELLEKEHIPEDYCTICFAAPGSTTLLPCNHDGFCSDCCNMMDHCPLCRKPIEERIQKTKNNRSFDNVKSPSNSSISAFVRVNSQRKSTRATSAVATHPTDTVIHTGITTANNRDIARRHTQV | not soluble |
| MAFDAARYVHRYYASLAPAPGNEYPRLRAWEYLWEYVWDPSRSWDDLTAPEQLDTTALHLGFYLANWGMFRGSSGLLQNSNLDLMKALARQLFSGAGPELFELSLVDFAGNGARLAHNRKLLETVLGSMDALSSRVSWTDTLKSKILLGVWGEFPALDRHYVAACRALYPRRGLTSVNGGTLTALHRLIGEERLSFPRLETARKGLLYPTGRLADMAFFQYGLENALEHHHHHH | soluble |
| MAFHHGRRCRITPLPETESLQESKKMNINELGARIDRPTIRELIAYATCRNRPISNSTLLRMEKDGRIPCRLKTPLTSPVWDTREVLEALGLQQ | not soluble |
| MAFICELDEQWSYVGSKARQHWLGYAYNTKTGGVLAYTFGPRTDQTCRELLALLTPFNIGMLTSDDWGSYGREVPKNKHLTGKIFTQRIERNNLTLRTRIKRLGRKTICFSRSVEIHEKVIGAFIEKHMFY | not soluble |
| MAFLGLFSLLVLQSMATGATFPEEAIADLSVNMYNRLRATGEDENILFSPLSIALAMGMMELGAQGSTQEEIRHSMGYDSLKNGEEFSFLKEFSNMVTAKESQYVMKIANSLFVQNGFHVNEEFLQMMKKYFNAAVNHVDFSQNVAVANYINKWVENNTNNLVKDLVSPRDFDAATYLALINAVYFKGNWKSQFRPENTRTFSFTKDDESEVQIPMMYQQGEFYYGEFSDGSNEAGGIYQVLEIPYEGDEISMMLVLSRQEVPLATLEPLVKAQLVEEWANSVKKQKVEVYLPRFTVEQEIDLKDVLKALGITEIFIKDANLTGLYDNKEIFLSKAIHKSFLEVNEEGSEAAAVSGMIAISRMAVLYPQVIVDHPFFFLIRNRRTGTILFMGRVMHPETMNTSGHDFEEL | soluble |
| MAFPRRLLSLSLRVKDLEAALFFYRDLLGLKVEADPPRYRLFPEGRGFLLELLHDPEAPLRPYPSLGLYHFALLLPHRKALAGVFRRLLEAGAHFEGAADHGVSEALYFRDPEGNGLELYRDRPKEAWPKGPLMFTAPLNLEKLLAENPDPTPLPPETLLGHLHLHVEDLAAAEAFFNGKLGMEVTLRTYPGALFFAWDGYHHHVGANTWAGRRKAPPGATGLLGYTLLAPPGVPPGEHPDPTGALARVLTEPPPSP | soluble |
| MAFSSRKEISSRNSERSTDDTACLRMSENGVALWCEKNVFVQENQPFVDYLPYFCSKVIGTLSIGKNLCGSFSGEKQSIPDKTIMVNIKI | not soluble |
| MAGCSMMKVDRTFPDLKEIPVDLATRFRQMIEWLEIANSECRLTPYKKISHIYQIFHSQGVLECLFRRGEDDISFMIEASVYLLDHPLDGSRSSSPTICDFAGVLPTIFVTFRNKRLGTMVSGASVEFMEFAHHIQEHIHRTSFPEIRTAEIHKISLIDVRFGNMDRNAKNIIVKVEDNIPHFVPIDHEMCFINTGQNYNLCKPYWLSLEDSSIYEA | soluble |
| MAGDPMDTISRISSYVAGKVVKYPGLKYIAGVAISYAIHKFEESGLWRSVPIDKYIQLPRELEHHHHHH | not soluble |
| MAGDPMGSGESKANTAETPEVLDVKLTGPEKVNPGESAAYEAAVSYGDEAVTDADEVEFEVWKEGEKDASQMFKVKQEKGVYRLETTFKEDGVYTVQSHVTAKKQHSMPTLKVQVGDADAASNQSEEEHSHHHLEHHHHHH | soluble |
| MAGDPMMSITIEQIRGALAGVADPQTGLELNVCVKDRDIHLAADPAALTIELGYPAGGVADSVRALAGAALAAAGLGAVRVAVTWNIIAHAVQPGLKPLPQVRNIIAVASGKGGVGKSTTAVNLALALAAEGARAGLLDADIYGPSVPAMLGLAGRPESRDNKTMEPLVGHGLQANSIGLLIDADAPAIWRGPMVTQALEQLLRQTNWRDLDYLVVDMPPGTGDIALTLAQKVPVAGAVIVTTPQDIALLDARKGLRMFQKVHVPILGVVENMAVHICPQCGHAEHIFGAGGGRRVAEQYEVPWLGSLPLQRAIREQTDAGNPTVAAEPESEVAGIYRDIARRVAARIAGLPRDMAGKLPAVVVRPALEHHHHHH | not soluble |
| MAGDPMNIQDAQPSTLREMIKQGKLTGHTSGMAKGYVQANVVILPSKCAYDFLLFCFRNPKTCPLLDVSEKGNKSFTKYGVTADISTEVAAYRIYQYGELIETRANVDDLYTDDMVSFLIGCSFTFEHALLEAGIPIRHLEENHNVPMYVTNIPANPSGQFKGNITVSMRPMTMTQAIKATEITTRFKNVHGTPIHIGNPTEIGITDLALPDFGEPVTINENEVPVFWGCGVTPQSVALDAKPDLMITHAPGHMFITDIPDSQLSDLEHHHHHH | soluble |
